Results reported in PMC4070327 (Science (New York, N.Y.), 2014).

T1: E. coli Trigger Factor (TF), full length (E. coli, UniProt P0A850 1-432)
T1 sequence (looked up): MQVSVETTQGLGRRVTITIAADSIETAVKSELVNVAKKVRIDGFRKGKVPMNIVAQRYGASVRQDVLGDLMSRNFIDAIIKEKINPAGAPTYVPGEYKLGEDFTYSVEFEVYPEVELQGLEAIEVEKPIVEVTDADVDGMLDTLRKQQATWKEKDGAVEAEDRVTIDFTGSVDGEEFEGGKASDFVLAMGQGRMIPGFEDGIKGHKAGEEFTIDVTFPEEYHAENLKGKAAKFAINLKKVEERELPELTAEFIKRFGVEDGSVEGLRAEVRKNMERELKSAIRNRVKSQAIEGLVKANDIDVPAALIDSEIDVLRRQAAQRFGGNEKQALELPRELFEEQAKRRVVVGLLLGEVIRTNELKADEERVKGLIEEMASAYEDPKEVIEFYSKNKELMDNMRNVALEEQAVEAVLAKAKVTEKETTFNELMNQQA


How the values were obtained:
[1] = biological target: T1, E. coli Trigger Factor (TF), full length; test: ITC
[2] = biological target: T1, E. coli Trigger Factor (TF), full length; test: NMR titration
[3] = biological target: T1, E. coli Trigger Factor (TF), full length; test: ITC + NMR titration

Binder | Kd [1] [µM] | stoichiometry N [2] [TF per PhoA^a-c] | Kd [3] [µM]
PhoA^a-c (PhoA fragment with TF-binding sites a to c) (domain or fragment, E. coli, UniProt P00634 1-150, looked up) MKQSTIALALLPLLFTPVTKARTPEMPVLENRAAQGDITAPGGARRLTGDQTAALRDSLSDKPAKNIILLIGDGMGDSEITAARNYAEGAGGFFKGIDALPLTGQYTHYALNKKTGKPDYVTDSAASATAWSTGVKTYNGALGVDIHEKD | ~2 | 1 | 
PhoA^d-e (PhoA fragment with TF-binding sites d and e) (domain or fragment, E. coli) ARADVTLGGGAKTFAETATAGEWQGKTLREQAQARGYQLVSDAASLNSVTEANQQKPLLGLFADGNMPVRWLGPKATYHGNIDKPAVTCTP | ~4 |  | 
PhoA site b (independent fragment) (domain or fragment) TPEMPVLENRAAQGDITAPGGARRLTGDQTAALRDSLSDKPAKNIILLIGDGMGDS |  |  | ~200
PhoA^f-g (PhoA fragment with TF-binding sites f and g) (domain or fragment, E. coli) QIGETVDLDEAVQRALEFAKKEGNTLVIVTADHAHASQIVAPDTKAPGLTQALNTKDGAVMVMSYGNSEEDSQEHTGSQLRIAAYGPHAANVVGLTDQTDLFYTMKAALGLK | ~14 |  | 
